Measured values as given in the nanobody polyreactivity screen of Harvey et al. (2022).

Test: yeast display, Sf9 membrane polyspecificity reagent, FACS + sequencing; frameworks hold sequencing errors
Outline: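 In a synthetic yeast display library (Saccharomyces cerevisiae BJ5465), nanobody expression was induced with galactose for 36–48 hours. FACS gates were set low and high (top ~1%) using anti-HA fluorescence for expression and streptavidin fluorescence for binding of the Sf9 membrane reagent. Each polyreactivity label is drawn from the gate of origin.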

Row | Sequence | polyreactivity (PSR sort gate)
1 | QVQLVESGGGLVQAGGSLRLSCAASGSIFAANAMGWYRQAPGKERELVAAITSGGSTDYADSVKGRFTISRDNAKNTVYLEMNSLKPEDTAVYYCAKGYVPYAIFDYWGQGTQVTVSS | low polyreactivity
2 | QVQLVESGGGLVQAGGSLRLSCAASGSIFAAYTMGWYRQAPGKERELVAAISVSTVSTYYADSVKGRFTISRDNAKISVYLQMNSLKPEDTAVYYCNADSTTQDYDYWGQGTQVTVSS | low polyreactivity
3 | QVQLVESGGGLVQAGGSLRLSCAASGSIFAAYTMGWYRQAPGKERELVAAISVSTVSTYYADSVKGRFTISRDNAKNTVYIQMNSLKPEDTAVYYCNADATDSYPEKDEHDSWGQGTQVTVSS | low polyreactivity
4 | QVQLVESGGGLVQAGGSLRLSCAASGSIFADNAMGWYRQAPGKEMELVADISWSGGRTYYADSVKGRFTISRDNAKNTVYLQMNSLKPEDTAVYYCAARYRDYRAGFDYWGQGTQLTVSS | high polyreactivity
5 | QVQLVESGGGLVQAGGSLRLSCAASGSIFADYAMGWYRQAPGKERELVAVITSGGRTNYADSVKGRFTISRDNAKNTVYLQMNSLKPEDTAVYYCDTRRYRYYAYRNYYYWGQGTQVTVSS | high polyreactivity
6 | QVQLVESGGGLVQAGGSLRLSCAASGSIFADYAMGWYRQAPGKERELVAVITSSGGSTNYADSVKGRFTISRDNAKNTVYLQMNSLKPEDTAVYYCNRRPYPSYDYWGQGTQVTVSS | low polyreactivity
7 | QVQLVESGGGLVQAGGSLRLSCAASGSIFADYVMGWYRQAPGKERELVAAITRRGRTYYSDSVKGRFTISRDNAMNTVYIQMNILKPEDSAVYYCDKVASGKIDSWGQGTQVTVSS | low polyreactivity
8 | QVQLVESGGGLVQAGGSLRLSCAASGSIFAFYTMGWYRQAPGKERELVATITRSGRTNYADSVKGRFTISRDNAKNTVYLQMNSLKPEDTAVYYCAAGYLSGNYARYGYWGQGTQVTVSS | high polyreactivity
9 | QVQLVESGGGLVQAGGSLRLSCAASGSIFAGYAIGWYRQAPGKERELVAAISWSGGGTYYADSVKGRFTISRDNAKNTVYLQMNSLKPEDTAVYYCNAYGYRHRGNGYWGQGTQVTVSS | high polyreactivity
10 | QVQLVESGGGLVQAGGSLRLSCAASGSIFAGYAMGWYRQAPGKERELVATITSSSRTNYADSVKGRFTISRDNAKNTVYLQMNSLKPEDTAVYYCAARGRYVIDGYRMYYWGQGTQVTVSS | high polyreactivity
11 | QVQLVESGGGLVQAGGSLRLSCAASGSIFAGYAMGWYRQAPGNERELVAAISNRGSSTNYADSVKGRFTISRDNAKITVYLQMNSLKPEDTAVYYCAVGPIRKYDYWGQGTQVTVSS | high polyreactivity
12 | QVQLVESGGGLVQAGGSLRLSCAASGSIFALYAMGWYRQAPGKERELVAAISWRAGGTYYADSVKGRFTISRDNAKNTVYLQMNSLKPEDTAVYYCAAEISLYYYGDYEYWGVGTQVTVSS | high polyreactivity
13 | QVQLVESGGGLVQAGGSLRLSCAASGSIFALYTMGWYRPAPGKERELVAAISRRGGNTYYADSVKGRFTISRDNAKNTVYLQMNSLKPEDTAVYYCNADRLRSTHDYWGQGTQVTVSS | high polyreactivity
14 | QVQLVESGGGLVQAGGSLRLSCAASGSIFAPYAMGWYRQAPGKERELVAAINNNGGRTYYADSVKGRFTISRDNAKNTVYLQMNSLKPEDTAVYYCAKELGYDWYYRPYGYWGQGTQVTVSS | low polyreactivity
15 | QVQLVESGGGLVQAGGSLRLSCAASGSIFAPYAMGWYRQAPGKERELVAAISTGGRTHYADSVKGRFTISRDNAKNTVYLHMNSLKPEDTAVYYCAAARPTAGVIRPHYYWGQGTQVTVSS | high polyreactivity
16 | QVQLVESGGGLVQAGGSLRLSCAASGSIFAPYAMGWYRQAPGKEREVVAAITSGVGSTYYADSVKGRFTISRDNAKNTVYLQMNSLKPEDTAVYYCAADSSYLTYWEYDYWGQGSQVTVSS | low polyreactivity
17 | QVQLVESGGGLVQAGGSLRLSCAASGSIFAPYAMGWYRQAPGTERELVAAITWSGDSTYYADSVKGRFTISRDNAKNTVYLQMNSLKPEDTAVYYCATEEVYGQGNYWGQGTQVTVSS | low polyreactivity
18 | QVQLVESGGGLVQAGGSLRLSCAASGSIFAPYDMGWYRQAPGKERELVAAIDWGGDSTYYADSVKGRFTISRDNAKNTVYLQMNSLKPEDTAVYYCAADDLWLSYRTEYDYYYWGQGTQVTVSS | low polyreactivity
19 | QVQLVESGGGLVQAGGSLRLSCAASGSIFAQNAIGWYRQAPGKERELVAAIDLNGGSTYYADSVKGRFTISRDNAKNTVYLQLNSQKPEDTAVYYCAVYYGHSSVIRSSPEYDSWGQGTQVTVSS | low polyreactivity
20 | QVQLVESGGGLVQAGGSLRLSCAASGSIFAQYAMGWYRQAPGKERELVATISSVGSTNYADSVKGRFTISRDNAKNSVYLLMNSLKPEDTAVYYCNAVRSGWGYFYGLNSWGQGTQVTVSS | low polyreactivity
21 | QVQLVESGGGLVQAGGSLRLSCAASGSIFAQYAMGWYRQAPGKETELVAAISYRGGRTYYADSVKGRFTISRDNAKNTVYLQMNSLKPEDTAVYYCNADSSSYSSDLGYDYWGQGTQVTVSS | low polyreactivity
22 | QVQLVESGGGLVQAGGSLRLSCAASGSIFARNAMGSYRQAPGKERELVAAITVRGRTNYADSVKGRFTISRDNAKNTVYLQMNSLKPDDTAVYYCAASLWDDDSRLMYYWGQGTQVTVSS | high polyreactivity

Row | Sequence | polyreactivity (PSR sort gate)
23 | QVQLVESGGGLVQAGGSLRLSCAASGSIFARYAMGWYRQAPGKERELDAAISGRGGSTYYADSVKGRFTISRDNAKNTVYLQMNSLKPEDTAVYYCNAVGHTSIRRALDILDYWGQGTQVTVSS | high polyreactivity
24 | QVQLVESGGGLVQAGGSLRLSCAASGSIFARYAMGWYRQAPGKERELVAAISSSGSRTYYADSVKGRFTISRDNAKNTVYLQMNSLKPEDTAVYYCATRYGSASGREYEYWGQGTQVTVSS | high polyreactivity
25 | QVQLVESGGGLVQAGGSLRLSCAASGSIFARYVMGWYRQAPGKERELVAAISRGGRTKYADSVKGRFTISRDNAKNTVYLQMNSLKPEDTAVYYCAASGSQPDDYWGQGTQVTVSS | high polyreactivity
26 | QVQLVESGGGLVQAGGSLRLSCAASGSIFASNAMGWYRQAPGKERELVAAITDSGSTNYADSVKGRFTISRDNAKNTVYLQMNSLKREDTAVYYCDWSYYVWRRYRVARYDSWGQGTQVTVSS | low polyreactivity
27 | QVQLVESGGGLVQAGGSLRLSCAASGSIFASNAMGWYRQAPGKERGLVAAITYNGGSTYYADSVKGRFTISRDNAKNTVYLQMNSLKPEDTAVYYCAALGTRRPHIPRGDYWGQGTQVTVSS | low polyreactivity
28 | QVQLVESGGGLVQAGGSLRLSCAASGSIFASYAMGWYRQAPGKERELVAVITRSGGSTYYADSVKGRFTISRDNAKNTVYLQMNSLKPEDTAVYYCAAQYGRTYYSRREYWGQGTQVTVSS | high polyreactivity
29 | QVQLVESGGGLVQAGGSLRLSCAASGSIFASYDMGWYRQAPGKERELVAAISYRGGGTYYADSVKGRVTISRDNAKNTVYLQMNSLKPEDTAVYYCNADTYSNTYRAYDYWGQGTQVTVSS | low polyreactivity
30 | QVQLVESGGGLVQAGGSLRLSCAASGSIFASYVMGWYRQAPGKERELVAAITSRGTSTYYADSVKGRFTISRDNAKNTVYLHMNSLNPEDTAVYYCAARLYGSAPQHEYWGQGTQVTVSS | low polyreactivity
31 | QVQLVESGGGLVQAGGSLRLSCAASGSIFAVNAMGWYRQAPGKERELVAAIDWSDGITYYADSVKGRFTISRDNAKNTVYLQMNSLKPEDTAVYYCAADATAYGWYVEQFSFYDNDYWGQGTEVTVSS | high polyreactivity
32 | QVQLVESGGGLVQAGGSLRLSCAASGSIFAVNAMGWYRQAPGKERELVAAISWNGGSTYYADSVKGRFTISRDNAKNTVYLQMNSLKPEDTAVYYCATVRYKYYWSYYRYGYWGQGTQVTVSS | high polyreactivity
33 | QVQLVESGGGLVQAGGSLRLSCAASGSIFAVNTMGWYIQAPGKERELVAAISQRGSSTYYADSVKGRFTISRDNAKNTVYLQMNSLKPEDTAVYYCAKRFIYGRYNYWGQGTQVTVSS | high polyreactivity
34 | QVQLVESGGGLVQAGGSLRLSCAASGSIFAVYAMGWSRQAPGKERELVAAITTSGGSTYYADSVKGRFTISRDNAKNTVYLQMNSLKPEDTAVYYCAAYRGTLLTAYDYWGQGTQVTVSS | low polyreactivity
35 | QVQLVESGGGLVQAGGSLRLSCAASGSIFAVYAMGWYRQAPGKEREFVARISWGGGRTYYADSVKGRCTISRDNAKNPVYLQMNSLKPEDTAVYYCAATFRARPRENYWGQGTQVTVSS | high polyreactivity
36 | QVQLVESGGGLVQAGGSLRLSCAASGSIFAVYVMGWYRQAPGKERDFVAAITYSGTSTNYADSVKGRFTISRDNAKNTVYLQMNSLKPEDTAVFYCAADVRSSNGHYTLYDYWGQGTQVTVSS | high polyreactivity
37 | QVQLVESGGGLVQAGGSLRLSCAASGSIFAWYVMGWYRQAPGKERELVAGIDTSGGSTFYADSVKGRFTISRDNAKNTVYLQMNSLKPEDTAVYYCAADTWFRGPWEFDYWGQGTQVTVSS | low polyreactivity
38 | QVQLVESGGGLVQAGGSLRLSCAASGSIFAYAMGWYRQAPGKERELVAGISSSGGRTYYADSVKGRFTISRDNAKNTVYLQMISLKPEDTAVYYCAARYPNVYQSETYFYWGQGTQVNVSS | high polyreactivity
39 | QVQLVESGGGLVQAGGSLRLSCAASGSIFAYNAMGWYIQSPGTERELVAAISSSGGSTTYADSVKGRFTISRDNAKYTVYLQMNSLKPEDTAVYYCNAAWRRSRYYYWGQGTQVTVSS | high polyreactivity
40 | QVQLVESGGGLVQAGGSLRLSCAASGSIFAYNAMGWYRQAPGKEREFVAVITRSDDSTYADSVKGRFTISRDNAKNSVYLQMNSLKPEDTAVYYCAAQPFVIDGGYRGDYWGQGTQVTVSS | low polyreactivity
41 | QVQLVESGGGLVQAGGSLRLSCAASGSIFAYYAMGGYRQAPGKERELVAAITSGDSTYYADSVKGRFTISRDNAKNTVYLQMNSLKPEDTAVYYCAADHIWFYFYLYDYWGQGTQVTVSS | low polyreactivity
42 | QVQLVESGGGLVQAGGSLRLSCAASGSIFAYYAMGWYRQAPGKEMELVAAITRGGTTYYADSVKGRFTISRDNAKNTVYLQMNSLKPEDTAVYYCAVYYYSGTAGYRYGYWGQATQVTVSS | high polyreactivity
43 | QVQLVESGGGLVQAGGSLRLSCAASGSIFAYYAMGWYRQAPGKEREFVARITYSTDGTYYADSVKGRFTISRDNAKNTVYLQMNSLKPEDTAVYYCAVDTWWGFKRYKFDYWGQGTQVTVSS | low polyreactivity
